These are literature values, as cited in publication PMC3902607.

The target in this data set is RXFP2 (Homo sapiens) (UniProt Q8WXD0).
Chain of UniProt Q8WXD0 (Q8WXD0 whole entry): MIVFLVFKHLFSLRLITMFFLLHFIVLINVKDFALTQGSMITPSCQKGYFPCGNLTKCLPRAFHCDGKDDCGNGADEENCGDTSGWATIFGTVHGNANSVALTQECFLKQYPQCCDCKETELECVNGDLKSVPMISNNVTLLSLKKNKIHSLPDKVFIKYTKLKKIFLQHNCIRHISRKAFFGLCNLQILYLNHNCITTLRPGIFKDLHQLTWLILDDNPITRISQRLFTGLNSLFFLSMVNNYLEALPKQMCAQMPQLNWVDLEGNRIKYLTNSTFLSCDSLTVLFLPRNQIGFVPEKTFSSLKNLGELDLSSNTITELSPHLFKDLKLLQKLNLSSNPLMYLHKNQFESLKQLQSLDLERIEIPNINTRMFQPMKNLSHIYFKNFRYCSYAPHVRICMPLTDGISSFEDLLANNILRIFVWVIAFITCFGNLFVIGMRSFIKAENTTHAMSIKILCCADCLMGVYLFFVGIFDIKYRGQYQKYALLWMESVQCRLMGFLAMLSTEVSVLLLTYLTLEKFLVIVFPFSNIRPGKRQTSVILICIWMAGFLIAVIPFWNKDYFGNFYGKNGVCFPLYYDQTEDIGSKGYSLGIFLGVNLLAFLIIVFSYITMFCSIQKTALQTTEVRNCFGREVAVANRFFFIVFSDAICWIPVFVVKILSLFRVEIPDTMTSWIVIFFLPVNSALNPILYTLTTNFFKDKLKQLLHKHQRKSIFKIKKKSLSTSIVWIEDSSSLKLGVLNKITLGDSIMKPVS

With INSL3 (from UniProt P51460), the Kd was below 1 nM.

As a reminder, the Kd is the constant that tells how readily two partners part at equilibrium.
